Tested on: Escherichia coli TOP10
Assay: shrunken log2 fold change of peptide-encoding DNA abundance (4.5 h post-induction vs induction); higher = less antimicrobial activity (less host growth inhibition)
Conditions: time post-induction: 4.5 h; library: site-saturation at positions 5, 18, 19, 20
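Further: peptides expressed intracellularly from a pBAD plasmid library in pooled LB shake-flask culture, induced with 0.3% L-arabinose, DNA abundance read by NGS, three biological replicates, DESeq2 with apeglm shrinkage.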

Sequence	shrunken log2 fold change
RRIRPRPPRLPRPRPRPGLWPRP	0.341
RRIRSRPPRLPRPRPRPRALPRP	0.0323
RRIRARPPRLPRPRPRPEVLPRP	0.709
RRIRERPPRLPRPRPRPNQSPRP	-0.236
RRIRARPPRLPRPRPRPECPPRP	0.683
RRIRSRPPRLPRPRPRPEGCPRP	0.0128
RRIRCRPPRLPRPRPRPCRRPRP	0.0819
RRIRMRPPRLPRPRPRPKLQPRP	0.273
RRIRSRPPRLPRPRPRPISRPRP	-0.416
RRIRMRPPRLPRPRPRPETGPRP	0.321
RRIRERPPRLPRPRPRPLPCPRP	-0.315
RRIRSRPPRLPRPRPRPCRDPRP	-0.0619
RRIRHRPPRLPRPRPRPLYWPRP	-0.276
RRIRVRPPRLPRPRPRPAMTPRP	0.0589
RRIRFRPPRLPRPRPRPIPQPRP	0.132
RRIRIRPPRLPRPRPRPVKVPRP	-0.00567
RRIRKRPPRLPRPRPRPWPIPRP	0.891
RRIRVRPPRLPRPRPRPCMKPRP	-0.104
RRIRHRPPRLPRPRPRPFVSPRP	-0.19
RRIRKRPPRLPRPRPRPDCKPRP	-0.0333
RRIRIRPPRLPRPRPRPPKFPRP	-0.294
RRIRSRPPRLPRPRPRPQSKPRP	-0.0711
RRIRHRPPRLPRPRPRPFIIPRP	-0.00662
RRIRFRPPRLPRPRPRPIVLPRP	-0.196
RRIRNRPPRLPRPRPRPYDPPRP	-0.00192

Sequence	shrunken log2 fold change
RRIRSRPPRLPRPRPRPYYNPRP	-0.906
RRIRDRPPRLPRPRPRPVWNPRP	0.00745
RRIRSRPPRLPRPRPRPYDEPRP	0.0261
RRIRNRPPRLPRPRPRPWKAPRP	-0.0227
RRIRYRPPRLPRPRPRPIQPPRP	0.00143
RRIRQRPPRLPRPRPRPYKYPRP	-1.49
RRIRHRPPRLPRPRPRPWCMPRP	-0.0194
RRIRCRPPRLPRPRPRPMFRPRP	-0.179
RRIRKRPPRLPRPRPRPWGQPRP	0.0379
RRIRLRPPRLPRPRPRPYPDPRP	-0.598
RRIRFRPPRLPRPRPRPILMPRP	-0.0682
RRIRARPPRLPRPRPRPDSPPRP	0.342
RRIRNRPPRLPRPRPRPPHWPRP	0.406
RRIRSRPPRLPRPRPRPSHPPRP	-0.277
RRIRLRPPRLPRPRPRPELMPRP	0.0527
RRIRWRPPRLPRPRPRPPEVPRP	0.334
RRIRTRPPRLPRPRPRPCAPPRP	-0.142
RRIRTRPPRLPRPRPRPCANPRP	-0.148
RRIRERPPRLPRPRPRPSFYPRP	-0.308
RRIRKRPPRLPRPRPRPQVAPRP	-0.0663
RRIRSRPPRLPRPRPRPPWCPRP	0.309
RRIRSRPPRLPRPRPRPPWTPRP	0.319
RRIRTRPPRLPRPRPRPHAIPRP	0.103
RRIRCRPPRLPRPRPRPFQSPRP	-0.0129
RRIRRRPPRLPRPRPRPMFWPRP	0.506

Sequence	shrunken log2 fold change
RRIRKRPPRLPRPRPRPYAVPRP	0.916
RRIRGRPPRLPRPRPRPALEPRP	1.11
RRIRRRPPRLPRPRPRPRLCPRP	0.472
RRIRNRPPRLPRPRPRPHREPRP	-0.00211
RRIRGRPPRLPRPRPRPDVNPRP	0.245
RRIRTRPPRLPRPRPRPSGHPRP	-0.17
RRIRTRPPRLPRPRPRPQECPRP	-0.0262
RRIRCRPPRLPRPRPRPNKHPRP	-0.541
RRIRRRPPRLPRPRPRPMLGPRP	0.15
RRIRSRPPRLPRPRPRPHIVPRP	-0.243
RRIRIRPPRLPRPRPRPDCVPRP	-0.0493
RRIRTRPPRLPRPRPRPERCPRP	0.0057
RRIRQRPPRLPRPRPRPLITPRP	-0.281
RRIRKRPPRLPRPRPRPWSWPRP	0.00624
RRIRWRPPRLPRPRPRPRMTPRP	0.394
RRIRKRPPRLPRPRPRPQKRPRP	0.403
RRIRSRPPRLPRPRPRPQVSPRP	-0.236
RRIRWRPPRLPRPRPRPDFAPRP	0.49
RRIRARPPRLPRPRPRPGIKPRP	-0.0359
RRIRQRPPRLPRPRPRPDNDPRP	-0.0011
RRIRYRPPRLPRPRPRPLPPPRP	0.0954
RRIRQRPPRLPRPRPRPDEMPRP	-0.0225
RRIRTRPPRLPRPRPRPWEHPRP	-0.069
RRIRVRPPRLPRPRPRPLHAPRP	0.473
RRIRMRPPRLPRPRPRPRNIPRP	0.0054

Sequence	shrunken log2 fold change
RRIRNRPPRLPRPRPRPNWNPRP	-0.691
RRIRWRPPRLPRPRPRPIPPPRP	0.101
RRIRTRPPRLPRPRPRPICHPRP	0.055
RRIRLRPPRLPRPRPRPCMAPRP	-0.311
RRIRARPPRLPRPRPRPKQNPRP	0.481
RRIRQRPPRLPRPRPRPMGMPRP	0.0187
RRIRVRPPRLPRPRPRPKHSPRP	-0.189
RRIRNRPPRLPRPRPRPSYSPRP	-0.555
RRIRPRPPRLPRPRPRPRVQPRP	0.398
RRIRPRPPRLPRPRPRPKDDPRP	-0.0737
RRIRRRPPRLPRPRPRPQRSPRP	0.302
RRIRGRPPRLPRPRPRPNTEPRP	0.299
RRIRNRPPRLPRPRPRPLRIPRP	0.0934
RRIRVRPPRLPRPRPRPYDYPRP	-0.00141
RRIRTRPPRLPRPRPRPLHLPRP	0.053
RRIRIRPPRLPRPRPRPALAPRP	0.202
RRIRLRPPRLPRPRPRPFYWPRP	0.228
RRIRHRPPRLPRPRPRPKDDPRP	-0.152
RRIRTRPPRLPRPRPRPFPGPRP	-0.21
RRIRLRPPRLPRPRPRPLSDPRP	0.0376
RRIRSRPPRLPRPRPRPMGFPRP	-0.0207
RRIRPRPPRLPRPRPRPKRHPRP	0.267
RRIRIRPPRLPRPRPRPKMTPRP	0.123
RRIRTRPPRLPRPRPRPPGHPRP	0.245
RRIRVRPPRLPRPRPRPSVRPRP	-0.297

Sequence	shrunken log2 fold change
RRIRIRPPRLPRPRPRPTCQPRP	-0.215
RRIRYRPPRLPRPRPRPMRWPRP	0.448
RRIRHRPPRLPRPRPRPFDCPRP	-0.186
RRIRFRPPRLPRPRPRPLMHPRP	-0.246
RRIRWRPPRLPRPRPRPINFPRP	-0.143
RRIRRRPPRLPRPRPRPMYQPRP	-0.058
RRIRMRPPRLPRPRPRPVPHPRP	0.537
RRIRKRPPRLPRPRPRPANHPRP	-0.235
RRIRQRPPRLPRPRPRPRMYPRP	-0.2
RRIRFRPPRLPRPRPRPRYSPRP	-0.736
RRIRERPPRLPRPRPRPCLIPRP	-0.0716
RRIRCRPPRLPRPRPRPKNKPRP	-0.244
RRIRQRPPRLPRPRPRPTFSPRP	-0.0427
RRIRLRPPRLPRPRPRPFRRPRP	-0.0943
RRIRGRPPRLPRPRPRPQNYPRP	-0.153
RRIRFRPPRLPRPRPRPFFTPRP	-0.227
RRIRTRPPRLPRPRPRPTESPRP	-0.0539
RRIRQRPPRLPRPRPRPVPKPRP	-0.00476
RRIRERPPRLPRPRPRPWFDPRP	-0.529
RRIRPRPPRLPRPRPRPCNWPRP	-0.0706
RRIRVRPPRLPRPRPRPAMGPRP	0.34
RRIRERPPRLPRPRPRPECYPRP	-0.143
RRIRPRPPRLPRPRPRPLNYPRP	-0.615
RRIRCRPPRLPRPRPRPLLPPRP	-0.143
RRIRSRPPRLPRPRPRPTMGPRP	-0.238

Sequence	shrunken log2 fold change
RRIRMRPPRLPRPRPRPWPSPRP	0.034
RRIRERPPRLPRPRPRPWYYPRP	0.0432
RRIRPRPPRLPRPRPRPPHFPRP	0.646
RRIRKRPPRLPRPRPRPHGCPRP	0.352
RRIRWRPPRLPRPRPRPHPQPRP	0.309
RRIRHRPPRLPRPRPRPIKCPRP	-0.87
RRIRSRPPRLPRPRPRPQRKPRP	0.264
RRIRNRPPRLPRPRPRPFIQPRP	-0.737
RRIRARPPRLPRPRPRPTLMPRP	0.768
RRIRNRPPRLPRPRPRPKLGPRP	0.055
RRIRFRPPRLPRPRPRPWNRPRP	-0.216
RRIRERPPRLPRPRPRPFHWPRP	-0.0575
RRIRKRPPRLPRPRPRPNWDPRP	1.4
RRIRERPPRLPRPRPRPAVYPRP	-0.221
RRIRYRPPRLPRPRPRPVHFPRP	-0.451
RRIRPRPPRLPRPRPRPASDPRP	0.261
RRIRKRPPRLPRPRPRPNTTPRP	-0.0509
RRIRIRPPRLPRPRPRPWKQPRP	-0.00674
RRIRSRPPRLPRPRPRPNIHPRP	0.829
RRIRTRPPRLPRPRPRPSPYPRP	-0.573
RRIRNRPPRLPRPRPRPTVQPRP	-0.179
RRIRERPPRLPRPRPRPCQKPRP	-0.0135
RRIRKRPPRLPRPRPRPDEIPRP	0.0203
RRIRARPPRLPRPRPRPEPVPRP	0.512
RRIRRRPPRLPRPRPRPSVRPRP	0.238
